One series concerns the target T1, HU-B (UniProt P0ACF4 1-90, F47W).
T1 sequence: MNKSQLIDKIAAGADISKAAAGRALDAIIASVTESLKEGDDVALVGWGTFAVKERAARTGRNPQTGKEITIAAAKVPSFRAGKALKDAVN
Description: EMSA. Background: In EMSA bound probe runs differently from free probe, usually more slowly.

In the next series the target is HU-A (UniProt P0ACF0 1-90, F79W). Description: EMSA.
The series “SEC” deals with the molecule itself. Description: SEC. (SEC sorts molecules by how far they enter the pores of the column.)

B1: 4WJ DNA (four-way junction, cruciform) (structured_DNA)
DNA 1: CCCTATAACCCCTGCATTGAATTCCAGTCTGATAA
DNA 2: GTAGTCGTGATAGGTGCAGGGGTTATAGGG
DNA 3: AACAGTAGCTCTTATTCGAGCTCGCGCCCTATCACGACTA
DNA 4: TTTATCAGACTGGAATTCAAGCGCGAGCTCGAATAAGAGCTACTGT
For the molecule B1, the binding result in the series with HU-B and with HU-A was “binds” in each case.

B2: HU-A (F79W mutant of HU-A) (natural protein, E. coli)
chain: MNKTQLIDVIAEKAELSKTQAKAALESTLAAITESLKEGDAVQLVGFGTFKVNHRAERTGRNPQTGKEIKIAAANVPAWVSGKALKDAVK
Broadly, the stoichiometry N is a count of units in the complex or per binding partner. As for B2, in the series “SEC”, the “stoichiometry N” value came out at 2.

The record behind these values is publication doi:10.1101/2022.06.23.497280 (bioRxiv, 2022).
